The assay has as its target endogenous phosphorylated p38 (P-p38) (human (endogenous in Huh7.5.1)) (UniProt Q16539).

From paper PMC7667676 come the findings set out here.

UniProt Q16539, sequence (Q16539 whole entry): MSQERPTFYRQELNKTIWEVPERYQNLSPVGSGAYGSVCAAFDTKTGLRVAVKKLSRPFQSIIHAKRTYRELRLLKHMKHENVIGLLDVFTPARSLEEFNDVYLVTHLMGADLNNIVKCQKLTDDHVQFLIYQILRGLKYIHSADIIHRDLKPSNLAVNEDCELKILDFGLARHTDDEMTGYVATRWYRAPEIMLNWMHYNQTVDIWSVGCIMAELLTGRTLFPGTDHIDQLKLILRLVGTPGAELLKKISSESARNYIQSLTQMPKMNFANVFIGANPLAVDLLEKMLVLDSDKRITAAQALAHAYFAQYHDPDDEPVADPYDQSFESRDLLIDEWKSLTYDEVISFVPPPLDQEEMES

“HCV core protein N-terminal peptide (CN-peptide)” returned a reduction of intracellular HCV RNA (qRT-PCR) in JFH1-infected primary human hepatocytes incubated with the CN-peptide for 72 h; the pair blocked is p38α and the HCV core protein (m8 and m9) of 91%.
